In article PMC10542384:

Molecular target: RNF111 (Arkadia) (UniProt Q6ZNA4)
Assay: proximity ligation assay (PLA)
Settings: ARKL1 KO U2OS cells complemented with HA-ARKL1WT (n = 28), HA-ARKL1SIM* (n = 20) or vector (n = 17); antibodies against HA and RNF111; parent: est. 9.0; read off a plot

Sequence of UniProt Q6ZNA4 (Q6ZNA4 whole entry): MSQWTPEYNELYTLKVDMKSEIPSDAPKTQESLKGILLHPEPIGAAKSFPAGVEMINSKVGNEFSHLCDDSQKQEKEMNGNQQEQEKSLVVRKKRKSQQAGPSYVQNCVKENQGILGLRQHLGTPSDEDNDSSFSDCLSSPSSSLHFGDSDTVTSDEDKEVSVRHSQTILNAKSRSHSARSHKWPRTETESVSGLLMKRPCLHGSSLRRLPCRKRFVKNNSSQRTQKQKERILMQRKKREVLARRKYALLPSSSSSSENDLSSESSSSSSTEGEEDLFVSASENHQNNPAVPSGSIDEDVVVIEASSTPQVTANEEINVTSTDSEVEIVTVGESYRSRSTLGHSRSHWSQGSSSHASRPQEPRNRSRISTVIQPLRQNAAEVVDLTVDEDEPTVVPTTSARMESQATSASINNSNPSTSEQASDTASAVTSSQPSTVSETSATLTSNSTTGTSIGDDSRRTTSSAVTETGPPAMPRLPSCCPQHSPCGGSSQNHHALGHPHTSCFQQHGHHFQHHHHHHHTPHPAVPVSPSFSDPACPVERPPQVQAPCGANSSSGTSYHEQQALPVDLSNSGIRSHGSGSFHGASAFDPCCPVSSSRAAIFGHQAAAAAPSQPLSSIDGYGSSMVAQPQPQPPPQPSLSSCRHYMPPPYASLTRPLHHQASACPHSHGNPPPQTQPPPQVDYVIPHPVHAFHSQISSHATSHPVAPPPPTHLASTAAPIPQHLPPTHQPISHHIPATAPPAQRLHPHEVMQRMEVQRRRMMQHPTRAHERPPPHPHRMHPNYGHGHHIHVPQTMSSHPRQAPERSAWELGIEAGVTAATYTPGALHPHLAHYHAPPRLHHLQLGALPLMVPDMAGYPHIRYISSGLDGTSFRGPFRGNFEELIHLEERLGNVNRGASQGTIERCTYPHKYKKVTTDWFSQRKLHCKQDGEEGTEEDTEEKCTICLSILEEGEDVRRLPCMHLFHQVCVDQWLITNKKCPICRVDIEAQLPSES

## HA-ARKL1 wild type (from UniProt Q96B23) SIM*
  response (PLA foci per cell): 1
